Assay results published in patent US20080019962A1 (DYAX CORP A MASSACHUSETTS, published 2008).

Tests used:
Experiment in all cases: cell-based or functional assay
[1] = biological target: T1, Trypsinogen-IV (UniProt P35030 81-304)
T1 sequence (looked up): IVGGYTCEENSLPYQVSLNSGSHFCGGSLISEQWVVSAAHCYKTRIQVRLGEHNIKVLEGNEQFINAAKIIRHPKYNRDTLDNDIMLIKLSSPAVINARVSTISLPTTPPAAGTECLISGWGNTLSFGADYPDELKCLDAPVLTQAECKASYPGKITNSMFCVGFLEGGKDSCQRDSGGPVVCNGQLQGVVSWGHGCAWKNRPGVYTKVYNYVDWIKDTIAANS

[2] = biological target: T2, MTSP-1 (UniProt Q9Y5Y6 615-855, limits assumed)
T2 sequence (looked up): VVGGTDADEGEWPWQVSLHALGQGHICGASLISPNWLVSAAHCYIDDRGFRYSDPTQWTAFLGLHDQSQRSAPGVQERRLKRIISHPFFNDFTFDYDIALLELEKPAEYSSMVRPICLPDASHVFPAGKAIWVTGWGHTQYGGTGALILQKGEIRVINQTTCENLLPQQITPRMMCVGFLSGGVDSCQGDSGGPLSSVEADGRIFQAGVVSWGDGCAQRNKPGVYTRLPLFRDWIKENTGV

[3] = biological target: MTSP-6
[4] = biological target: MTSP-7
[5] = biological target: MTSP-10
[6] = biological target: Endotheliase-1 (ET1)

Measured: activity against protease in selectivity screen (enzyme assay)

B1: D5 IgG1 antibody (Fab D5 reformatted) (antibody, V domains shown)
VH: EVQLLESGGGLVQPGGSLRLSCAASGFTFSRYDMHWVRQAPGKGLEWVSSISSSGGYTAYADSVKGRFTISRDNSKNTLYLQMNSLRAEDTAVYYCARGARGTSQGYWGQGTLVTVSS
VL: DIQMTQSPGTLSLSPGERGTLSCRASQFVSYSYLAWYQQKPGQAPRLLIYGASSRAKGIPDRFSGSGSGTDFTLTITRLEPEDFAVYYCQQYVPSVPWTFGQGTKVEVKR
< 5%: all assays above

B2: D2 IgG1 antibody (Fab D2 reformatted) (antibody, V domains shown)
VH: EVQLLESGGGLVQPGGSLRLSCAASGFTFSRYRMYWVRQAPGKGLEWVSSISPSGGDTRYADSVKGRFTISRDNSKNTLYLQMNSLRAEDTAVYYCARGGPRGNKYYFDYWGQGTLVTVSS
VL: DIQMTQSPSSLSASVGDRVTITCRASQTIDNYLNWYQQKPGKAPKLVVYAASTLQTRVPSRFSGSGSGTDFTLTIDSLKPEDFATYFCQQGFSNPWTFGQGTTVAMIR
< 5%: all assays above

B3: A2 IgG1 antibody (Fab A2 reformatted) (antibody, V domains shown)
VH: EVQLLESGGGLVQPGGSLRLSCAASGFTFSRYRMYWVRQAPGKGLEWVSSISPSGGDTRYADSVKGRFTISRDNSKNTLYLQMNSLRAEDTAVYYCARGGPRGNKYYFDYWGQGTLVTVSS
VL: DIQMTQSPSFLSAFVGDRVTITCRASQDIRSDLAWYQQTPGKAPKLLIYAASTLKDGAPSRFSGSGSGTEFTLTISSLHPEDLATYYCQHLNGHPAFGPGTKVNIQR
< 5%: all assays above

B4: H10 IgG1 antibody (Fab H10 reformatted) (antibody, V domains shown)
VH: EVQLLESGGGLVQPGGSLRLSCAASGFTFSRYRMYWVRQAPGKGLEWVSSISPSGGDTRYADSVKGRFTISRDNSKNTLYLQMNSLRAEDTAVYYCARGGPRGNKYYFDYWGQGTLVTVSS
VL: not shown
not listed: [2]
< 5%: all other assays above

B5: F8 IgG1 antibody (Fab F8 reformatted) (antibody, V domains shown)
VH: EVQLLESGGGLVQPGGSLRLSCAASGFTFSRYHMWWVRQAPGKGLEWVSGISSSRGITKYADSVKGRFTISRDNSKNTLYLQMNSLRAEDTAVYYCARGGPRGNKYYFDYWGQGTLVTVSS
VL: DIQMTQSPGTLSLSPGERVTLSCRASQSVTSSDLAWYQQKPGQAPRLLISGASSRATGIPDRFSGSGSGTDFTLTISRLEPEDFAVYYCQQYGNSPGTFGQGTKVEIKR
not listed: [2]
< 5%: all other assays above

B6: B5 IgG1 antibody (Fab B5 reformatted) (antibody, V domains shown)
VH: EVQLLESGGGLVQPGGSLRLSCAASGFTFSRYRMYWVRQAPGKGLEWVSSISPSGGDTRYADSVKGRFTISRDNSKNTLYLQMNSLRAEDTAVYYCARGGPRGNKYYFDYWGQGTLVTVSS
VL: SYELTQPPSVSVSLGQAANISCSGDRLGDKYTSWYQQQSGQSPVLVIYQDKKRPSGIPERFSGSSSGNTATLTISGAQAIDEAAYYCQAWATNVVFGAGTKLTVLG
< 5%: all assays above

B7: C9 IgG1 antibody (Fab C9 reformatted) (antibody, V domains shown)
VH: EVQLLESGGGLVQPGGSLRLSCAASGFTFSRYPMFWVRQAPGKGLEWVSYISSSGGFTGYADSVKGRFTISRDNSKNTLYLQMNSLRAEDTAVYYCARGGPRGNKYYFDYWGQGTLVTVSS
VL: QSVLTQPASVSGSPGQSITISCTGTSSDVGHYNYVSWYQQHPGKAPKVMIYDVSSRPSGVSDRFSGSKSGNTASLAISGLQAEDEADYYCSSYTSGDTLYVFGTGTKVTVLG
< 5%: all assays above
